Five molecules from article PMC7015813 (Nature structural & molecular biology, 2020) can be followed below.

B4: mouse RAG1 (aa 265-1040), catalytically inactive E962Q mutant (enzyme, UniProt P15919 265-1040, looked up)
chain: NCSKIHLSTKLLAVDFPAHFVKSISCQICEHILADPVETSCKHLFCRICILRCLKVMGSYCPSCRYPCFPTDLESPVKSFLNILNSLMVKCPAQDCNEEVSLEKYNHHVSSHKESKETLVHINKGGRPRQHLLSLTRRAQKHRLRELKIQVKEFADKEEGGDVKAVCLTLFLLALRARNEHRQADELEAIMQGRGSGLQPAVCLAIRVNTFLSCSQYHKMYRTVKAITGRQIFQPLHALRNAEKVLLPGYHPFEWQPPLKNVSSRTDVGIIDGLSGLASSVDEYPVDTIAKRFRYDSALVSALMDMEEDILEGMRSQDLDDYLNGPFTVVVKESCDGMGDVSEKHGSGPAVPEKAVRFSFTVMRITIEHGSQNVKVFEEPKPNSELCCKPLCLMLADESDHETLTAILSPLIAEREAMKSSELTLEMGGIPRTFKFIFRGTGYDEKLVREVEGLEASGSVYICTLCDTTRLEASQNLVFHSITRSHAENLQRYEVWRSNPYHESVEELRDRVKGVSAKPFIETVPSIDALHCDIGNAAEFYKIFQLEIGEVYKHPNASKEERKRWQATLDKHLRKRMNLKPIMRMNGNFARKLMTQETVDAVCELIPSEERHEALRELMDLYLKMKPVWRSSCPAKECPESLCQYSFNSQRFAELLSTKFKYRYEGKITNYFHKTLAHVPEIIERDGSIGAWASEGNQSGNKLFRRFRKMNARQSKCYEMEDVLKHHWLYTSKYLQKFMNAHNALKSSGFTMNSKETLGDPLGIEDSLESQDSMEF

In series [1] the target is B4. Put plainly: cryo-EM structure.
Series [2] has as its target T1, WT core mouse RAG1 (aa 384-1008) (mouse, UniProt P15919 384-1008).
T1 sequence (looked up): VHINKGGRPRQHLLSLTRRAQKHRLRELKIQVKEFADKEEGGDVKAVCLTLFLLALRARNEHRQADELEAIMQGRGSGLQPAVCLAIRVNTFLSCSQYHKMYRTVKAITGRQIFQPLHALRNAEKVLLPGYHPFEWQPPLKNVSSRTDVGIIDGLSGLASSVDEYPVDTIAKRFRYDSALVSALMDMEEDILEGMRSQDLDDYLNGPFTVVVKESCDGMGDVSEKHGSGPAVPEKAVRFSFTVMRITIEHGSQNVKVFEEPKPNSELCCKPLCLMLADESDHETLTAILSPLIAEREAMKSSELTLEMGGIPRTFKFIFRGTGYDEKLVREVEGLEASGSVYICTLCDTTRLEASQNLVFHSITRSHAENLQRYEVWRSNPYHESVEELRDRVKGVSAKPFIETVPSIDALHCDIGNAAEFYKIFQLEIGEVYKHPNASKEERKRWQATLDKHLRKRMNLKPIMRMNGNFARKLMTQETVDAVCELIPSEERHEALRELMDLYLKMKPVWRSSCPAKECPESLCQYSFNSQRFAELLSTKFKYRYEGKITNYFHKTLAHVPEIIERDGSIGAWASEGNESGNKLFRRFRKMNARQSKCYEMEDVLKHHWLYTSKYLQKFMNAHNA
Put plainly: crystal structure.

For series [3], the target named is T2, WT core mouse RAG1 (aa 384-1008) (mouse), P15919.
T2 chain: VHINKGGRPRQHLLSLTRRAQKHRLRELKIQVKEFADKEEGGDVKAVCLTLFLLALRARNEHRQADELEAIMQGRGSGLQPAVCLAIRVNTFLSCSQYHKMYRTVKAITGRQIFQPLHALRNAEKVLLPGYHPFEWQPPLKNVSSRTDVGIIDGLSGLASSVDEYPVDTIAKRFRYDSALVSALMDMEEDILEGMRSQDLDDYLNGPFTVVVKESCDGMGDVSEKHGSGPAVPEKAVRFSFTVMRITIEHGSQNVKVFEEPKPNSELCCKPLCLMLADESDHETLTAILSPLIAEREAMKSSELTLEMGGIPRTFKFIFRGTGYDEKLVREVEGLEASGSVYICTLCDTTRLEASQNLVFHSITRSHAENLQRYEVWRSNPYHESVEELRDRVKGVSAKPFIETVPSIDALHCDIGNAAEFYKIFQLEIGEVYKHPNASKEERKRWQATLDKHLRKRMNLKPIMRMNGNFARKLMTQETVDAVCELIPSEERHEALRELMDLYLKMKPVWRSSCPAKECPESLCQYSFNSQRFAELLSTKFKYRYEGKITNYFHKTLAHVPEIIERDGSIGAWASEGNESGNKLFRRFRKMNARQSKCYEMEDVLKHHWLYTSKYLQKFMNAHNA
Description: crystal structure. The following applies: remark: other sources report otherwise.

The series “cryo-EM structure” concerns the molecule itself. Put plainly: cryo-EM structure.

B1: mouse RAG2 (aa 1-520), degradation resistant T490A mutant (natural protein, UniProt P21784 1-520, looked up)
chain: MSLQMVTVGHNIALIQPGFSLMNFDGQVFFFGQKGWPKRSCPTGVFHFDIKQNHLKLKPAIFSKDSCYLPPLRYPATCSYKGSIDSDKHQYIIHGGKTPNNELSDKIYIMSVACKNNKKVTFRCTEKDLVGDVPEPRYGHSIDVVYSRGKSMGVLFGGRSYMPSTQRTTEKWNSVADCLPHVFLIDFEFGCATSYILPELQDGLSFHVSIARNDTVYILGGHSLASNIRPANLYRIRVDLPLGTPAVNCTVLPGGISVSSAILTQTNNDEFVIVGGYQLENQKRMVCSLVSLGDNTIEISEMETPDWTSDIKHSKIWFGSNMGNGTIFLGIPGDNKQAMSEAFYFYTLRCSEEDLSEDQKIVSNSQTSTEDPGDSTPFEDSEEFCFSAEATSFDGDDEFDTYNEDDEDDESVTGYWITCCPTCDVDINTWVPFYSTELNKPAMIYCSHGDGHWVHAQCMDLEERTLIHLSEGSNKYYCNEHVQIARALQAPKRNPPLQKPPMKSLHKKGSGKVLTPAKKS
With B1, in series [1], the binding result is reported as “binds”.

B2: WT core mouse RAG2 (aa 1-359) (domain or fragment, UniProt P21784 1-359, looked up)
chain: MSLQMVTVGHNIALIQPGFSLMNFDGQVFFFGQKGWPKRSCPTGVFHFDIKQNHLKLKPAIFSKDSCYLPPLRYPATCSYKGSIDSDKHQYIIHGGKTPNNELSDKIYIMSVACKNNKKVTFRCTEKDLVGDVPEPRYGHSIDVVYSRGKSMGVLFGGRSYMPSTQRTTEKWNSVADCLPHVFLIDFEFGCATSYILPELQDGLSFHVSIARNDTVYILGGHSLASNIRPANLYRIRVDLPLGTPAVNCTVLPGGISVSSAILTQTNNDEFVIVGGYQLENQKRMVCSLVSLGDNTIEISEMETPDWTSDIKHSKIWFGSNMGNGTIFLGIPGDNKQAMSEAFYFYTLRCSEEDLSEDQ
For the molecule B2, the binding result in series [2] is reported as “binds”.

B3: WT core mouse RAG1 (aa 384-1008), P15919 384-1008 (enzyme)
chain: VHINKGGRPRQHLLSLTRRAQKHRLRELKIQVKEFADKEEGGDVKAVCLTLFLLALRARNEHRQADELEAIMQGRGSGLQPAVCLAIRVNTFLSCSQYHKMYRTVKAITGRQIFQPLHALRNAEKVLLPGYHPFEWQPPLKNVSSRTDVGIIDGLSGLASSVDEYPVDTIAKRFRYDSALVSALMDMEEDILEGMRSQDLDDYLNGPFTVVVKESCDGMGDVSEKHGSGPAVPEKAVRFSFTVMRITIEHGSQNVKVFEEPKPNSELCCKPLCLMLADESDHETLTAILSPLIAEREAMKSSELTLEMGGIPRTFKFIFRGTGYDEKLVREVEGLEASGSVYICTLCDTTRLEASQNLVFHSITRSHAENLQRYEVWRSNPYHESVEELRDRVKGVSAKPFIETVPSIDALHCDIGNAAEFYKIFQLEIGEVYKHPNASKEERKRWQATLDKHLRKRMNLKPIMRMNGNFARKLMTQETVDAVCELIPSEERHEALRELMDLYLKMKPVWRSSCPAKECPESLCQYSFNSQRFAELLSTKFKYRYEGKITNYFHKTLAHVPEIIERDGSIGAWASEGNESGNKLFRRFRKMNARQSKCYEMEDVLKHHWLYTSKYLQKFMNAHNA
A word on the stoichiometry N: it is a count of units in the complex or per binding partner. As to B3, the stoichiometry N in series [3] is 2.

Turning to B4, in “cryo-EM structure”, the binding result is recorded as “binds”.

B5: mouse RAG1 (aa 265-1040), wild type (enzyme, UniProt P15919 265-1040, looked up)
chain: NCSKIHLSTKLLAVDFPAHFVKSISCQICEHILADPVETSCKHLFCRICILRCLKVMGSYCPSCRYPCFPTDLESPVKSFLNILNSLMVKCPAQDCNEEVSLEKYNHHVSSHKESKETLVHINKGGRPRQHLLSLTRRAQKHRLRELKIQVKEFADKEEGGDVKAVCLTLFLLALRARNEHRQADELEAIMQGRGSGLQPAVCLAIRVNTFLSCSQYHKMYRTVKAITGRQIFQPLHALRNAEKVLLPGYHPFEWQPPLKNVSSRTDVGIIDGLSGLASSVDEYPVDTIAKRFRYDSALVSALMDMEEDILEGMRSQDLDDYLNGPFTVVVKESCDGMGDVSEKHGSGPAVPEKAVRFSFTVMRITIEHGSQNVKVFEEPKPNSELCCKPLCLMLADESDHETLTAILSPLIAEREAMKSSELTLEMGGIPRTFKFIFRGTGYDEKLVREVEGLEASGSVYICTLCDTTRLEASQNLVFHSITRSHAENLQRYEVWRSNPYHESVEELRDRVKGVSAKPFIETVPSIDALHCDIGNAAEFYKIFQLEIGEVYKHPNASKEERKRWQATLDKHLRKRMNLKPIMRMNGNFARKLMTQETVDAVCELIPSEERHEALRELMDLYLKMKPVWRSSCPAKECPESLCQYSFNSQRFAELLSTKFKYRYEGKITNYFHKTLAHVPEIIERDGSIGAWASEGNESGNKLFRRFRKMNARQSKCYEMEDVLKHHWLYTSKYLQKFMNAHNALKSSGFTMNSKETLGDPLGIEDSLESQDSMEF
As to B5, the binding result in the series “cryo-EM structure” is given as “binds”.
